Consider one molecule from PMC5771124, “Characterization of a functional insertion sequence ISSau2 from Staphylococcus aureus”.

For the series, the target named is ISSau2 transposase OrfAB (Staphylococcus aureus E48 (ISSau2 in …, UniProt UPI0010FBCD58 1-522, F226L)). The series can be described thus: EMSA; Mg2+, excess poly(dI-dC), 0.42 ug OrfAB. Particulars: protein: recombinant; tags: N-terminal 6-His (pET32a vector fusion); label: biotin end label. A general note: A gel shift assay detects complexes by their altered migration in electrophoresis.

B1: IRL42 (dsDNA)
DNA 1: TGAAATGCTCCCTTCAAAGTAGACATTGAAAAAATGAAAACT
DNA 2: AGTTTTCATTTTTTCAATGTCTACTTTGAAGGGAGCATTTCA
For the molecule B1, the binding result is reported as “binds”.
